Each block holds one substance with its values, some of them ahead of it.
Key:
[1] = molecular target: D3H44 Fab heavy chain L124E_L143E_K145M, C-terminal ABD2-His6 tag; experiment: LCCA co-expression, SPR tag read-out; DNA 1:3 norm. to 1:1; competing light chain m7
[2] = molecular target: D3H44 Fab heavy chain L124E_L143E_K145T, C-terminal ABD2-His6 tag; experiment: as above
[3] = molecular target: D3H44 Fab heavy chain L124R_Q179K, C-terminal ABD2-His6 tag; experiment: as above
[4] = molecular target: D3H44 Fab heavy chain L124E_L143D_K145T, C-terminal ABD2-His6 tag; experiment: LCCA co-expression, SPR tag read-out; DNA 1:3 norm. to 1:1; competing light chain m8
[5] = molecular target: D3H44 Fab heavy chain L124E_L143E_K145M, C-terminal ABD2-His6 tag; experiment: as above
[6] = molecular target: D3H44 Fab heavy chain L124R_Q179K, C-terminal ABD2-His6 tag; experiment: as above
[7] = molecular target: D3H44 Fab heavy chain L124E_L143D_K145M, C-terminal ABD2-His6 tag; experiment: LCCA (co-expression, SPR read-out of light chain tags), L1:L2 DNA 1:3 normalised to 1:1; competitor m9
[8] = molecular target: D3H44 Fab heavy chain L124E_L143D_K145T, C-terminal ABD2-His6 tag; experiment: as above
[9] = molecular target: D3H44 Fab heavy chain L124R_Q179K, C-terminal ABD2-His6 tag; experiment: as above
[10] = molecular target: D3H44 Fab heavy chain L124E_L143D_K145M, C-terminal ABD2-His6 tag; experiment: LCCA (co-expression, SPR read-out of light chain tags), L1:L2 DNA 1:3 normalised to 1:1; competitor m10
[11] = molecular target: D3H44 Fab heavy chain L124R_Q179K, C-terminal ABD2-His6 tag; experiment: as above
[12] = molecular target: D3H44 Fab heavy chain L124E_L143D_K145M, C-terminal ABD2-His6 tag; experiment: LCCA (co-expression, SPR read-out of light chain tags), L1:L2 DNA 1:3 normalised to 1:1; competitor m11
[13] = molecular target: D3H44 Fab heavy chain L124E_L143D_K145T, C-terminal ABD2-His6 tag; experiment: as above
[14] = molecular target: D3H44 Fab heavy chain L124R_Q179K, C-terminal ABD2-His6 tag; experiment: as above
[15] = molecular target: D3H44 Fab heavy chain L124E_L143E_K145M, C-terminal ABD2-His6 tag; experiment: LCCA set 9266 (co-expression; SPR read-out of light-chain tags; L1:L2 DNA 1:3, normalized to 1:1); competing light chain m9
[16] = molecular target: D3H44 Fab heavy chain L124E_L143E_K145T, C-terminal ABD2-His6 tag; experiment: LCCA set 9316 (co-expression; SPR read-out of light-chain tags; L1:L2 DNA 1:3, normalized to 1:1); competing light chain m9
[17] = molecular target: D3H44 Fab heavy chain L124R_Q179K, C-terminal ABD2-His6 tag; experiment: LCCA set 9388 (co-expression; SPR read-out of light-chain tags; L1:L2 DNA 1:3, normalized to 1:1); competing light chain m9
[18] = molecular target: D3H44 Fab heavy chain L124E_L143E_K145M, C-terminal ABD2-His6 tag; experiment: LCCA set 9259 (co-expression; SPR read-out of light-chain tags; L1:L2 DNA 1:3, normalized to 1:1); competing light chain m10
[19] = molecular target: D3H44 Fab heavy chain L124E_L143E_K145T, C-terminal ABD2-His6 tag; experiment: LCCA set 9271 (co-expression; SPR read-out of light-chain tags; L1:L2 DNA 1:3, normalized to 1:1); competing light chain m12
[20] = molecular target: D3H44 Fab heavy chain L124E_L143E_K145T, C-terminal ABD2-His6 tag; experiment: LCCA set 9298 (co-expression; SPR read-out of light-chain tags; L1:L2 DNA 1:3, normalized to 1:1); competing light chain m10
[21] = molecular target: D3H44 Fab heavy chain L124R_D146N_Q179K, C-terminal ABD2-His6 tag; experiment: LCCA set 9350 (co-expression; SPR read-out of light-chain tags; L1:L2 DNA 1:3, normalized to 1:1); competing light chain m12
[22] = molecular target: D3H44 Fab heavy chain L124R_Q179K, C-terminal ABD2-His6 tag; experiment: LCCA set 9384 (co-expression; SPR read-out of light-chain tags; L1:L2 DNA 1:3, normalized to 1:1); competing light chain m10
[23] = molecular target: D3H44 Fab heavy chain L124A_L143F_Q179K, ABD2-His6 tagged; experiment: LCCA, SPR of light chain tags; L1:L2 DNA 1:3 normalized to 1:1; competing light chain m12
[24] = molecular target: D3H44 Fab heavy chain L124W_L143E_K145T_Q179E, ABD2-His6 tagged; experiment: as above
[25] = molecular target: D3H44 Fab heavy chain L124W_L143E_K145T_Q179E, ABD2-His6 tagged; experiment: LCCA, SPR of light chain tags; L1:L2 DNA 1:9 normalized to 1:1; competing light chain m12
[26] = molecular target: D3H44 Fab heavy chain L124A_L143F_Q179K, ABD2-His6 tagged; experiment: LCCA, SPR of light chain tags; L1:L2 DNA 1:3 normalized to 1:1; competing light chain m13
[27] = molecular target: D3H44 Fab heavy chain L124A_L143F_Q179K, ABD2-His6 tagged; experiment: LCCA, SPR of light chain tags; L1:L2 DNA 1:3 normalized to 1:1; competing light chain m14
[28] = molecular target: D3H44 Fab heavy chain L124A_Q179K, ABD2-His6 tagged; experiment: as above
[29] = molecular target: D3H44 Fab heavy chain L124W_L143E_K145T_Q179E, ABD2-His6 tagged; experiment: as above
[30] = molecular target: D3H44 Fab heavy chain L124W_L143F_K145T_Q179E, ABD2-His6 tagged; experiment: as above
[31] = molecular target: D3H44 Fab heavy chain L124A_L143F_Q179K, ABD2-His6 tagged; experiment: LCCA, SPR of light chain tags; L1:L2 DNA 1:9 normalized to 1:1; competing light chain m13
[32] = molecular target: D3H44 Fab heavy chain L124W_L143E_K145T_Q179E, ABD2-His6 tagged; experiment: as above
[33] = molecular target: D3H44 Fab heavy chain L143E_K145T_Q179D, ABD2-His6 tagged; experiment: LCCA, SPR of light chain tags; L1:L2 DNA 1:3 normalized to 1:1; competing light chain m19
[34] = molecular target: D3H44 Fab heavy chain S186K, ABD2-His6 tagged; experiment: as above
[35] = molecular target: D3H44 Fab heavy chain S186R, ABD2-His6 tagged; experiment: as above
[36] = molecular target: D3H44 Fab heavy chain L143E_K145T_Q179D, ABD2-His6 tagged; experiment: LCCA, SPR of light chain tags; L1:L2 DNA 1:9 normalized to 1:1; competing light chain m19
[37] = molecular target: D3H44 Fab heavy chain S186K, ABD2-His6 tagged; experiment: as above
[38] = molecular target: D3H44 light chain Q38R_Q124R_Q160K_T178R; experiment: LCCA, SPR tag readout, L1:L2 DNA 1:3 normalized to 1:1; competitor m19
[39] = molecular target: D3H44 light chain Q38E_Q124E_Q160E_T180E; experiment: LCCA, SPR tag readout, L1:L2 DNA 1:3 normalized to 1:1; competitor m26
[40] = molecular target: D3H44 light chain Q38R_Q124R_Q160K_T178R; experiment: LCCA, SPR tag readout, L1:L2 DNA 1:9 normalized to 1:1; competitor m19
[41] = molecular target: D3H44 light chain Q38E_Q124E_Q160E_T180E; experiment: LCCA, SPR tag readout, L1:L2 DNA 1:9 normalized to 1:1; competitor m26
[42] = molecular target: D3H44 Fab heavy chain L124W_L143F_K145T_Q179E, ABD2-His6 tagged; experiment: LCCA, SPR of light chain tags; L1:L2 DNA 1:3 normalized to 1:1; competing light chain m12
[43] = molecular target: D3H44 Fab heavy chain L124W_L143F_K145T_Q179E, ABD2-His6 tagged; experiment: LCCA, SPR of light chain tags; L1:L2 DNA 1:3 normalized to 1:1; competing light chain m15
[44] = molecular target: tissue factor (TF) antigen (UniProt P13726); experiment: SPR (ProteOn XPR36), Fab captured on anti-penta His, TF injected, 1:1 model
[45] = molecular target: tissue factor (TF) antigen (UniProt P13726); experiment: SPR (ProteOn XPR36), Fab captured on anti-penta His, TF injected at 0.74-60 nM, 1:1 model; median

Substance: D3H44 light chain Q124K_V133A_S176T_T178R, HA or FLAG tagged
H1L1:H1L2 normalized median ratio [23]: 5% | H2L2:H2L1 normalized median ratio [24]: 89% | H2L2:H2L1 normalized median ratio [25]: 92%

Substance: D3H44 Fab heavy chain Q39E_L143E_K145T_H172R_Q179E
H1L1:H1L2 normalized median ratio [38]: 97% | H1L1:H1L2 normalized median ratio [39]: 3% | H1L1:H1L2 normalized median ratio [40]: 95% | H1L1:H1L2 normalized median scalar value ln(r1/f1) [40]: 2.96 | H1L1:H1L2 normalized median ratio [41]: 5%

Substance: wild-type D3H44 Fab heterodimer constructs (Fab constructs containing HA tag or FLAG tag)
fold difference between the maximum and minimum KD values [44]: 2.6 fold | Kd [45]: 150 pM

The remaining lines, values ahead:

H1L1:H1L2 normalized median ratio (% (ratio normalized to 100)) [1]: 8 | H1L1:H1L2 normalized median ratio (% (ratio normalized to 100)) [2]: 5 | H2L2:H2L1 normalized median ratio (% (ratio normalized to 100)) [3]: 92 | H1L1:H1L2 normalized median ratio (% (ratio normalized to 100)) [4]: 8 | H1L1:H1L2 normalized median ratio (% (ratio normalized to 100)) [5]: 5 | H2L2:H2L1 normalized median ratio (% (ratio normalized to 100)) [6]: 92 | H1L1:H1L2 normalized median ratio [7]: 8% | H1L1:H1L2 normalized median ratio [8]: 8% | H2L2:H2L1 normalized median ratio [9]: 92% | H1L1:H1L2 normalized median ratio [10]: 9% | H2L2:H2L1 normalized median ratio [11]: 92% | H1L1:H1L2 normalized median ratio [12]: 10% | H1L1:H1L2 normalized median ratio [13]: 11% | H2L2:H2L1 normalized median ratio [14]: 93% | H1L1:H1L2 normalized median ratio (H1L2 part) [15]: 16% | H1L1:H1L2 normalized median ratio (H1L2 part) [16]: 12% | H2L2:H2L1 normalized median ratio (H2L2 part) [17]: 92% | H1L1:H1L2 normalized median ratio (H1L2 part) [18]: 16% | H1L1:H1L2 normalized median ratio (H1L2 part) [19]: 5% | H1L1:H1L2 normalized median ratio (H1L2 part) [20]: 12% | H2L2:H2L1 normalized median ratio (H2L2 part) [21]: 82% | H2L2:H2L1 normalized median ratio (H2L2 part) [22]: 92%
Substance: D3H44 light chain Q124E_V133G_S176D_T178E_T180E, N-terminal HA or FLAG tag

H1L1:H1L2 normalized median ratio [26]: 95% | H1L1:H1L2 normalized median scalar value ln(r1/f1) [26]: 2.88 | H1L1:H1L2 normalized median ratio [27]: 97% | H1L1:H1L2 normalized median scalar value ln(r1/f1) [27]: 3.61 | H1L1:H1L2 normalized median ratio [28]: 97% | H1L1:H1L2 normalized median scalar value ln(r1/f1) [28]: 3.59 | H2L2:H2L1 normalized median ratio [29]: 22% | H2L2:H2L1 normalized median ratio [30]: 30% | H1L1:H1L2 normalized median scalar value ln(r1/f1) [31]: 2.69 | H2L2:H2L1 normalized median ratio [32]: 8%
Substance: D3H44 light chain Q124E_V133W_S176T_T178E_T180E, HA or FLAG tagged

H1L1:H1L2 normalized median ratio [33]: 85% | H1L1:H1L2 normalized median scalar value ln(r1/f1) [33]: 1.74 | H2L2:H2L1 normalized median ratio [34]: 2% | H2L2:H2L1 normalized median ratio [35]: 3% | H1L1:H1L2 normalized median ratio [36]: 89% | H1L1:H1L2 normalized median scalar value ln(r1/f1) [36]: 2.05 | H2L2:H2L1 normalized median ratio [37]: 5%
Substance: D3H44 light chain Q124K_T178R, HA or FLAG tagged

H2L2:H2L1 normalized median ratio [24]: 78% | H2L2:H2L1 normalized median ratio [42]: 70% | H2L2:H2L1 normalized median ratio [43]: 69%
Substance: D3H44 light chain S131K_V133A_S176T_T178L, HA or FLAG tagged
